In publication PMC3364985, “Staphylococcus aureus Surface Protein SdrE Binds Complement Regulator Factor H as an Immune Evasion Tactic” (PLoS ONE, 2012):

B1: complement regulatory protein factor H (natural protein)
chain: EDCNELPPRRNTEILTGSWSDQTYPEGTQAIYKCRPGYRSLGNVIMVCRKGEWVALNPLRKCQKRPCGHPGDTPFGTFTLTGGNVFEYGVKAVYTCNEGYQLLGEINYRECDTDGWTNDIPICEVVKCLPVTAPENGKIVSSAMEPDREYHFGQAVRFVCNSGYKIEGDEEMHCSDDGFWSKEKPKCVEISCKSPDVINGSPISQKIIYKENERFQYKCNMGYEYSERGDAVCTESGWRPLPSCEEKSCDNPYIPNGDYSPLRIKHRTGDEITYQCRNGFYPATRGNTAKCTSTGWIPAPRCTLKPCDYPDIKHGGLYHENMRRPYFPVAVGKYYSYYCDEHFETPSGSYWDHIHCTQDGWSPAVPCLRKCYFPYLENGYNQNYGRKFVQGKSIDVACHPGYALPKAQTTVTCMENGWSPTPRCIRVKTCSKSSIDIENGFISESQYTYALKEKAKYQCKLGYVTADGETSGSITCGKDGWSAQPTCIKSCDIPVFMNARTKNDFTWFKLNDTLDYECHDGYESNTGSTTGSIVCGYNGWSDLPICYERECELPKIDVHLVPDRKKDQYKVGEVLKFSCKPGFTIVGPNSVQCYHFGLSPDLPICKEQVQSCGPPPELLNGNVKEKTKEEYGHSEVVEYYCNPRFLMKGPNKIQCVDGEWTTLPVCIVEESTCGDIPELEHGWAQLSSPPYYYGDSVEFNCSESFTMIGHRSITCIHGVWTQLPQCVAIDKLKKCKSSNLIILEEHLKNKKEFDHNSNIRYRCRGKEGWIHTVCINGRWDPEVNCSMAQIQLCPPPPQIPNSHNMTTTLNYRDGEKVSVLCQENYLIQEGEEITCKDGRWQSIPLCVEKIPCSQPPQIEHGTINSSRSSQESYAHGTKLSYTCEGGFRISEENETTCYMGKWSSPPQCEGLPCKSPPEISHGVVAHMSDSYQYGEEVTYKCFEGFGIDGPAIAKCLGEKWSHPPSCIKTDCLSLPSFENAIPMGEKKDVYKAGEQVTYTCATYYKMDGASNVTCINSRWTGRPTCRDTSCVNPPTVQNAYIVSRQMSKYPSGERVRYQCRSPYEMFGDEEVMCLNGNWTEPPQCKDSTGKCGPPPPIDNGDITSFPLSVYAPASSVEYQCQNLYQLEGNKRITCRNGQWSEPPKCLHPCVISREIMENYNIALRWTAKQKLYSRTGESVEFVCKRGYRLSSRSHTLRTTCWDGKLEYPTCAKR
notes: complement factor H, human, 155 kDa plasma protein; the assay's purified field tells the two apart; also called fH; purified fH; source: bought: CompTech (purified fH)

Experiments:
[1] = molecular target: recombinant SdrE (6×His-tagged A region of serine-aspartate repeat-containing protein E) (S. aureus); experiment: far-Western, overlay or dot blot; 5 µg of rSdrE, rClfA and BSA adsorbed to a PVDF membrane, blocked with 3% BSA/TBST, overlaid with purified fH (20 µg fH/10 ml block buffer) overnight; anti-fH, ECL, optical densitometry against a purified fH dilution series
recombinant SdrE (6×His-tagged A region of serine-aspartate repeat-containing protein E) (S. aureus), sequence (O86489 53-606 limits assumed): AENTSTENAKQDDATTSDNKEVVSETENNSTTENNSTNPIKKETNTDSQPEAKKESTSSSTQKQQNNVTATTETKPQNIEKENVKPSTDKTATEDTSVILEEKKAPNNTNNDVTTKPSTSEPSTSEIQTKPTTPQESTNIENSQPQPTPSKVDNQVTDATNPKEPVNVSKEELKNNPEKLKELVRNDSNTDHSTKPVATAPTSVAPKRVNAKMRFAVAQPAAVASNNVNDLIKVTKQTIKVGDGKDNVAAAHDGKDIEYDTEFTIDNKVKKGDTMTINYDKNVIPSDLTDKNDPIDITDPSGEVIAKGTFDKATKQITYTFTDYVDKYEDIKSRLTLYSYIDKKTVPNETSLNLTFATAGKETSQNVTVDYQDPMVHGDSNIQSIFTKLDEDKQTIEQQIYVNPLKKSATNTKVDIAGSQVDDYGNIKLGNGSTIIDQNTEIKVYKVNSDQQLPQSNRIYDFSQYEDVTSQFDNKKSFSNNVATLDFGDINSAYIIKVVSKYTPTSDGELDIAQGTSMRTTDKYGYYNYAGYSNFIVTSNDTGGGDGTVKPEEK

[2] = molecular target: T1, SdrE expressed on the surface of Lactococcus lactis (pKS80-SdrE) (S. aureus, UniProt O86489 53-1132); experiment: far-Western, overlay or dot blot; whole L. lactis (pKS80-SdrE or pKS80) immobilised on a PVDF membrane, overlaid with 5% HI-serum in 0.05% gelatin/PBST for 1 hr; anti-fH, optical densitometry against a serum dilution series; conditions: partners not purified
T1 construct: Compared throughout with L. lactis carrying the empty vector pKS80; also called L. lactis (pKS80-SdrE); SdrE-expressing L. lactis; source: L. lactis, constitutively expressed from pKS80, on the bacterial surface
T1 sequence (O86489 53-1132): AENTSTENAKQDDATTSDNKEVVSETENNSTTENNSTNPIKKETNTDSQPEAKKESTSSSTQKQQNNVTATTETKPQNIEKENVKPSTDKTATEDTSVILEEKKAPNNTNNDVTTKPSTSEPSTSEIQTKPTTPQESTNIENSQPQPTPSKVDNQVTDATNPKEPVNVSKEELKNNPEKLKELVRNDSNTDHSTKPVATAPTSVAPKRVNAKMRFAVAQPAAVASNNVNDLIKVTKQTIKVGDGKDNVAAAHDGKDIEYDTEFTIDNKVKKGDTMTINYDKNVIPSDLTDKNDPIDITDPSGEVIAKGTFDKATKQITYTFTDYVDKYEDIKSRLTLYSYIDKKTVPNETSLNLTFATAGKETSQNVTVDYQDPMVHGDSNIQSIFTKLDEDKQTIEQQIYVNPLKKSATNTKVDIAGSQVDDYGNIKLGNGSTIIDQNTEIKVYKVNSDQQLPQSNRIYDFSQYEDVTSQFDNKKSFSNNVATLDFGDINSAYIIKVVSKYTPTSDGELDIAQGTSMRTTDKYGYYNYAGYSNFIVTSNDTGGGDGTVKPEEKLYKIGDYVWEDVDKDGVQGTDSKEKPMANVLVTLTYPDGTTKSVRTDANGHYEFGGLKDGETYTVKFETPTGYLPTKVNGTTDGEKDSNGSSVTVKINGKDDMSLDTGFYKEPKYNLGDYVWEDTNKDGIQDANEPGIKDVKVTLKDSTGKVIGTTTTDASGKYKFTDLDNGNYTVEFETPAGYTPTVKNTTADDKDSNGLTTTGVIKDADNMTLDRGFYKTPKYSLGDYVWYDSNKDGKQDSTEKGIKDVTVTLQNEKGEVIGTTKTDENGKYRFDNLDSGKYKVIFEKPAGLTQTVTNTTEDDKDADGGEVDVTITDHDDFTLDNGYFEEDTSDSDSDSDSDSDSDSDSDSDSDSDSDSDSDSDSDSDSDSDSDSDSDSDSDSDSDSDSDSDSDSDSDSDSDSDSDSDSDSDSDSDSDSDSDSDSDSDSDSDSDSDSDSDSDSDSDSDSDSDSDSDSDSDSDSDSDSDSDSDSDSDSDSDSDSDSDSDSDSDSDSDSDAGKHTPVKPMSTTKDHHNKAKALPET

[3] = molecular target: T1, SdrE expressed on the surface of …; experiment: binding to whole bacteria in solution, SDS extraction, fH ELISA; L. lactis (OD600 = 4.0) in GVBS^++ with various amounts of HI-serum, 1 hr, 37°C; bound proteins extracted with 2% SDS; fH ELISA with chicken antibodies specific for human fH; conditions: partners not purified

Molecule	amount of fH bound [1] [ng]	fold more serum fH bound than on L. lactis (pKS80) [2] [fold]	fold more serum fH bound than on L. lactis (pKS80) [3] [fold]
complement regulatory protein factor H (from UniProt P08603 19-1231) (natural protein)	2.2		
B1		4	≤ 4
